{"source": "paper PMC3362532", "about": "“Targeting Melanoma Metastasis and Immunosuppression with a New Mode of Melanoma Inhibitory Activity (MIA) Protein Inhibition” (PLoS ONE, 2012)", "binders": {"B1": {"name": "dodecapeptide AR71 (peptide)", "peptide": "Ac-FHWRYPLPLPGQ-NH2"}}, "key": {"[1]": {"target": "T1, human MIA protein labelled for the HTFP assay (MIA-biotin conjugate immobilised; MIA-Ru(bpy)3 in solution) (human, UniProt Q16674 25-131, Ru(bpy)3 (from Ru(bpy)3-isothiocyanate) on the copy in solution; biotin on the immobilised copy; sites not stated)", "T1 construct": "human MIA protein; source: human MIA protein labeled with Ru(bpy)3-isothiocyanate, purified over a size exclusion column (Sephadex G75 M PD-10)", "T1 sequence (looked up)": "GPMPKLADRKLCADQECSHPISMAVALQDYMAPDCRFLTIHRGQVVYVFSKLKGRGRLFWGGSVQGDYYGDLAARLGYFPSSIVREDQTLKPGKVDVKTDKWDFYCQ", "test": "fluorescence polarisation; heterogeneous transition-metal-based fluorescence polarization (HTFP) assay: MIA-biotin immobilised in streptavidin-coated 96 well plates, MIA-Ru(bpy)3 in solution, RT, 250 uL per well, P/P0 against a well without MIA-biotin; peptides at 1.6 uM", "settings": "both partners purified"}, "[2]": {"target": "T2, recombinant human MIA, wild type (human, UniProt Q16674 25-131)", "T2 construct": "The printed residue numbers (C17, C106) fit the mature protein without its signal peptide; The vector may add a His tag; also called wt MIA; wild-type (wt) MIA; source: in vitro expression, Rapid Translation System RTS 500 E. coli HY Disulfide Kit (cell free)", "T2 sequence (looked up)": "T1 sequence (looked up)", "test": "NMR titration; 2D 1H-15N HSQC of uniformly 15N-enriched MIA with increasing amounts of AR71, 300 K, pH 7", "settings": "both partners purified"}}, "data": [{"binder": "B1", "values": [{"measurement": "binding result", "setting": "[1]", "value": "binds"}, {"measurement": "binding result", "setting": "[2]", "value": "binds"}]}]}
